Assay results as given in patent publication US20250313625A1 (ELPISCIENCE SUZHOU BIOPHARMA, published 2025).
Like-named read-outs stand apart in the source and are kept apart here.

T1: human LAG3, full length, stably expressed on cells (human, UniProt P18627 23-525)
T1 construct: whole, on cells; also called CHOK1-human LAG3
T1 sequence (looked up): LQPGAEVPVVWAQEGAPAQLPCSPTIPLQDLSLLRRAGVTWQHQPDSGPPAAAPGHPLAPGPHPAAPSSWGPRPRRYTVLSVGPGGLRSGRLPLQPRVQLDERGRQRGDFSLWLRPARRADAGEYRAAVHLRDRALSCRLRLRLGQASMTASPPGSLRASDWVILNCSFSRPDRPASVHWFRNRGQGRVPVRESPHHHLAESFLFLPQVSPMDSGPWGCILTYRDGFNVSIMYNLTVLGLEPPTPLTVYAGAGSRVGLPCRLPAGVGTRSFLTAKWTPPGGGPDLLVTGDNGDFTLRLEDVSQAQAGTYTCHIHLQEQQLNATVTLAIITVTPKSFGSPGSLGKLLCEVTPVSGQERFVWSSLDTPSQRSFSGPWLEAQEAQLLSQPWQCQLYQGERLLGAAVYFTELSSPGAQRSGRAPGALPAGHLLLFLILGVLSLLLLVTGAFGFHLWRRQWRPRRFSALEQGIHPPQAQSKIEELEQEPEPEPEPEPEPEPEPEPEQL

T2: mFc tagged human LAG3 ECD recombinant protein (human, UniProt P18627 23-450)
T2 construct: extracellular domain; purchased from Biointron; not shown: mouse IgG Fc (mFc) tag
T2 sequence (looked up): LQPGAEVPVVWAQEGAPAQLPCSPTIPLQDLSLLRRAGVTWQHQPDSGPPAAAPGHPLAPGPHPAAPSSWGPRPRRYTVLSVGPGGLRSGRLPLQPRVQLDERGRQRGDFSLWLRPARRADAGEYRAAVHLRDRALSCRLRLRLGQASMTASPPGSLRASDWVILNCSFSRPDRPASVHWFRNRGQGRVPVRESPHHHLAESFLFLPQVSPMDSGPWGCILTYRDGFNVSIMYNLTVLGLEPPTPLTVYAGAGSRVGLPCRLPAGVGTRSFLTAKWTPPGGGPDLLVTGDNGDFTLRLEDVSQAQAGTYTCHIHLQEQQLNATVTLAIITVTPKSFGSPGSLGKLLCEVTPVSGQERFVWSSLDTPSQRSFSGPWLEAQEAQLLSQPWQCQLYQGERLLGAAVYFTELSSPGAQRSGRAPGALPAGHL

T3: human LAG3 (form used in Octet, Biacore and HDX-MS not given) (human, UniProt P18627 23-450, limits assumed)
T3 sequence (looked up): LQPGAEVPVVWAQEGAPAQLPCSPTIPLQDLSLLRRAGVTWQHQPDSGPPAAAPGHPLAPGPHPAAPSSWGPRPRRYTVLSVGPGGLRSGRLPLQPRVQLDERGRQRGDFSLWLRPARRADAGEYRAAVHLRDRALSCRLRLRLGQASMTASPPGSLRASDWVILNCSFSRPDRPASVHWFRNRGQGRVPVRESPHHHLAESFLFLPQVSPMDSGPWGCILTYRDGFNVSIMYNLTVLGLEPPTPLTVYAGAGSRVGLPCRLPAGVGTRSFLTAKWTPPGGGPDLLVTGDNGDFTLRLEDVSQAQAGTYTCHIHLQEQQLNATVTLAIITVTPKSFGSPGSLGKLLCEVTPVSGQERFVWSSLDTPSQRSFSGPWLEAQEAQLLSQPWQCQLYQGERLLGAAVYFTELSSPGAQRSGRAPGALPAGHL

T4: LAG3 D1 domain extra loop peptide (biotin labelled (site not stated))
T4 peptide: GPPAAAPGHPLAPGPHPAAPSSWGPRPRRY

T5: hFc tagged human LAG3 ECD recombinant protein (human, UniProt P18627 23-450)
T5 construct: range 23-450; also called biotin labelled hFc tagged human LAG3 ECD; not shown: human IgG Fc tag
T5 sequence (looked up): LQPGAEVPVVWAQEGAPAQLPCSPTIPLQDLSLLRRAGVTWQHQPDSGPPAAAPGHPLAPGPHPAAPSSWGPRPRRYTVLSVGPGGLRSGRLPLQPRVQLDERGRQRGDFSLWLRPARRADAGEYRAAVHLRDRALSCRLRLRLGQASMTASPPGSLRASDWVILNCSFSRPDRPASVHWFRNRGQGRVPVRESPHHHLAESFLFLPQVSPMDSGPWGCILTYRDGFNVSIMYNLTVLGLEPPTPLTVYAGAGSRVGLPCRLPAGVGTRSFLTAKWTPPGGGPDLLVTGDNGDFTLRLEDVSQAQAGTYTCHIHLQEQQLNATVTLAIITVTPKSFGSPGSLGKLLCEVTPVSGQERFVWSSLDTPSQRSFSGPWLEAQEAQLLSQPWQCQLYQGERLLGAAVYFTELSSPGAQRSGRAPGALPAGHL


Key:
[1] = biological target: T1, human LAG3, full length, stably …; assay: FACS on CHOK1 cells stably expressing human LAG3
Protocol: (§1) MFI was detected and EC₅₀ was calculated using GraphPad Prism9.0.

[2] = biological target: T2, mFc tagged human LAG3 ECD recombinant …; assay: competitive FACS: mFc tagged human LAG3 ECD binding to MHC II on Raji cells
Protocol: (§2) Activity of the purified chimeric antibodies to block LAG3 and MHC II interaction was determined by competitive FACS assay. […] After washing, dye labeled anti-mouse Fc 2nd antibody (Sigma) was added and incubated at 37° C. for 1 hour. Fluorescence intensity was detected.

[3] = biological target: T3, human LAG3 (form used in Octet, Biacore …); assay: BLI (Octet), 1:1 fit
Protocol: (§3) The association and dissociation curves were fit with 1:1 binding model, and the Ka/Kd/KD values for each antibody were calculated.
as §3

[4] = biological target: T2, mFc tagged human LAG3 ECD recombinant …; assay: competitive ELISA: mFc tagged human LAG3 ECD binding to plate coated LSECtin ECD
Protocol: Activity of the purified chimeric antibodies to block LAG3 and LSECtin interaction was determined by competitive ELISA assay. […] After washing, HRP labeled anti-mouse Fc 2nd antibody (Sigma) was added and incubated at 37° C. for 1 hour. Then, 100 μl/well of TMB solution (Biotechnology) was added. After incubation for 15 minutes at room temperature, the reaction was stopped by the addition of 50 μl of 1N HCl. OD 450 nm was read.

[5] = biological target: T2, mFc tagged human LAG3 ECD recombinant …; assay: competitive FACS: mFc-LAG3 ECD binding to Raji cells (MHC II)
Protocol: as §2

[6] = biological target: T4, LAG3 D1 domain extra loop peptide; assay: ELISA format I: biotin labelled LAG3 D1 domain extra loop peptide on plate coated antibody; axis printed as Ab Conc. (nM)
Protocol: In ELISA binding assay of format I (FIG. 9A), biotin labelled LAG3 D1 domain extra loop peptide was incubated with ELISA microplate coated anti-LAG3 antibodies. After washing, HRP labeled anti-SA 2nd antibody (Sigma) was added and incubated at 37° C. for 1 hour. Then, 100 μl/well of TMB solution (Biotechnology) was added. After incubation for 15 minutes at room temperature, the reaction was stopped by the addition of 50 μl of 1N HCl. OD 450 nm was read. In ELISA binding assay of format II (FIG. 9B), biotin labelled LAG3 D1 domain extra loop peptide and anti-LAG3 antibodies were co-incubated in ELISA microplate coated with SA. After washing, HRP labeled anti-human Fc 2nd antibody (Sigma) was added and incubated at 37° C. for 1 hour. Then, 100 μl/well of TMB solution (Biotechnology) was added. After incubation for 15 minutes at room temperature, the reaction was stopped by the addition of 50 μl of 1N HCl. OD 450 nm was read.

[7] = biological target: T1, human LAG3, full length, stably …; assay: FACS on 293F cells stably expressing human LAG3
Protocol: Briefly the antibodies were incubated with 2×10⁵ target cells at 4° C. for 1 hour. After washing, fluorescence labeled anti-mouse IgG 2nd antibody (Life Technologies) was added and incubated at 4° C. for 1 hour. Geometric median fluorescence intensity (MFI) was detected and EC₅₀ was calculated using GraphPad Prism9.0.
as §1

[8] = biological target: T5, hFc tagged human LAG3 ECD recombinant …; assay: competitive ELISA format II: biotin hFc-LAG3 ECD binding to coated His-FGL1
Protocol: After washing, HRP labeled anti-His 2nd antibody (Sigma) was added and incubated at 37° C. for 1 hour. Then, 100 μl/well of TMB solution (Biotechnology) was added. After incubation for 15 minutes at room temperature, the reaction was stopped by the addition of 50 μl of 1N HCl. OD 450 nm was read. […] After washing, HRP labeled anti-SA 2nd antibody (Sigma) was added and incubated at 37° C. for 1 hour. Then, 100 μl/well of TMB solution (Biotechnology) was added. After incubation for 15 minutes at room temperature, the reaction was stopped by the addition of 50 μl of 1N HCl. OD 450 nm was read. […] The competition assay of format III is a competitive FACS assay. […] After washing, dye labeled anti-His 2nd antibody (Sigma) was added and incubated at 37° C. for 1 hour. Fluorescence intensity was detected.

[9] = biological target: T3, human LAG3 (form used in Octet, Biacore …); assay: BLI (Octet), 1:1 fit; remark: listed apart in the source
Protocol: The purified chimeric antibodies were characterized for binding affinity against human LAG3 using Bio-Layer Interferometry technology (Octet system). The association and dissociation curves were fit with 1:1 binding model, and the Ka/Kd/KD values for each antibody were calculated.

[10] = biological target: T2, mFc tagged human LAG3 ECD recombinant …; assay: competitive FACS: mFc tagged human LAG3 ECD binding to MHC II on Raji cells; remark: listed apart in the source
Protocol: as §2

Row | Binder | EC50 [1] [nM] | TOP MFI [1] | %Blocking at 2 nM [2] [%] | %Blocking at 4 nM [2] [%] | %Blocking at 8 nM [2] [%] | Kd [3] [nM] | koff [3] [s⁻¹] | kon [3] [M⁻¹ s⁻¹] | %Blocking at 4 nM [10] [%] | %Blocking at 8 nM [10] [%] | further results
1 | 021c (antibody, human IgG4, V domains shown, human IgG4 S228P / kappa chimeric antibody; also called chimeric antibody 021; not shown: human kappa light chain constant region (pcDNA3.4-hIgGk vector)) VH: DIQLQESGPGLVKPSQSLSLTCSVTGYSITSGYYWNWIRQFPGNKLEWMGDISYDGGNNYNPSLKNRISITRDTSKNQFFLKLNSVTTEDTATYYCARDITLTGAMDYWGQGTSVTVSS VL: DIVLTQSPASLAVSLGQRATISCRASESVDNYGISFMHWYQQRPGQPPKLLIYRASNLESGIPARFSGSGSRTDFTLTINPVETDDVATYYCQQSNKDPYTFGGGTKLEIK | 1.6 | 620 | 13.7 | 20.1 | 76.8 | 5.34 | 0.00271 | 508000 | – | – | %Blocking at 4 nM [4]: 27.4%; %Blocking at 20 nM [4]: 91.4%; %Blocking at 100 nM [4]: 95.6%; IC50 [5]: 4.2 nM; TOP blocking (%) [5]: 99.9%; binding result [6]: no binding (tested: about 300 nM); EC50 [7]: 15.6 nM; IC50 [8]: 1.93 nM; TOP blocking (%) [8]: 82%; Kd [9]: 6.52 nM; koff [9]: 0.000905 s⁻¹; kon [9]: 139000 M⁻¹ s⁻¹
2 | hu029.55 (antibody, V domains shown, humanized from 029c) VH: QVQLVESGGGLVKPGGSLRLSCAASGFTFSSYAMSWIRQAPGKGLEWVSYVTSGGDYIYYADTVKGRFTISRDDAKNSLYLQMNSLRAEDTAVYYCTRVAYDYEWYFDVWGQGTLVTVSS VL: DIQMTQSPSSVSASVGDRVTITCKASQDVTTAVAWYQQKPGKAPKLLIYSASYRYTGVPSRFSGSGSGTDFTLTISSLQPEDFATYYCQQHDSSPWTFGQGTKLEIK | – | – | 18.9 | 37.5 | 98.8 | 4.42 | 0.0197 | 4.47e+06 | 26 | 96.7 | –

The next binders have a lower Kd [3] than those just listed; values first:

Row | EC50 [1] [nM] | TOP MFI [1] | %Blocking at 2 nM [2] [%] | %Blocking at 4 nM [2] [%] | %Blocking at 8 nM [2] [%] | Kd [3] [nM] | koff [3] [s⁻¹] | kon [3] [M⁻¹ s⁻¹] | %Blocking at 4 nM [10] [%] | %Blocking at 8 nM [10] [%] | Binder | further results
3 | 0.4 | 669 | 20 | 40.3 | 98.5 | 3.57 | 0.00313 | 877000 | – | – | hu021.279 (antibody, V domains shown, humanized from 021c; also called hu21.279) VH: QIQLQESGPGLVKPGQTLSLTCTVSGYSITSGYYWTWIRQHPGNKLEWIGDISYDAGNNYNPSLKNRITISRDTSKNQFSLKLSSVTAEDTATYYCARDITLTGAMDYWGQGTTVTVSS VL: EIVLTQSPATLSLSPGERATLSCRASESVDNYGISFMHWYQQKPGQAPRLLIYRASNLESGIPARFSGSGSGTDFTLTISSLEPEDFAVYYCQQSNKDPYTFGQGTKLEIK | –
4 | – | – | – | – | – | 4.08 | 0.0207 | 5.06e+06 | 62.8 | 99.4 | hu029.55.S93Q (antibody, V domains shown) VH: QVQLVESGGGLVKPGGSLRLSCAASGFTFSSYAMSWIRQAPGKGLEWVSYVTSGGDYIYYADTVKGRFTISRDDAKNSLYLQMNSLRAEDTAVYYCTRVAYDYEWYFDVWGQGTLVTVSS VL: DIQMTQSPSSVSASVGDRVTITCKASQDVTTAVAWYQQKPGKAPKLLIYSASYRYTGVPSRFSGSGSGTDFTLTISSLQPEDFATYYCQQHDQSPWTFGQGTKLEIK | –
